Results taken from article PMC3169405.

Biological target: Bartonella henselae Nudix hydrolase BH02020 (Bh-MutT) (Bartonella henselae strain Houston-1)
Experiment: SEC; Superdex75 size-exclusion column, retention time 68 min; 21-residue N-terminal tag present

stoichiometry N: 2
Substance: Bartonella henselae Nudix hydrolase BH02020 (Bh-MutT) (enzyme)
